{"source": "paper PMC10082157", "key": {"[1]": {"biological_target": "human CD19 (human (endogenous in Raji)) (UniProt P15391)", "sequence (P15391 20-556)": "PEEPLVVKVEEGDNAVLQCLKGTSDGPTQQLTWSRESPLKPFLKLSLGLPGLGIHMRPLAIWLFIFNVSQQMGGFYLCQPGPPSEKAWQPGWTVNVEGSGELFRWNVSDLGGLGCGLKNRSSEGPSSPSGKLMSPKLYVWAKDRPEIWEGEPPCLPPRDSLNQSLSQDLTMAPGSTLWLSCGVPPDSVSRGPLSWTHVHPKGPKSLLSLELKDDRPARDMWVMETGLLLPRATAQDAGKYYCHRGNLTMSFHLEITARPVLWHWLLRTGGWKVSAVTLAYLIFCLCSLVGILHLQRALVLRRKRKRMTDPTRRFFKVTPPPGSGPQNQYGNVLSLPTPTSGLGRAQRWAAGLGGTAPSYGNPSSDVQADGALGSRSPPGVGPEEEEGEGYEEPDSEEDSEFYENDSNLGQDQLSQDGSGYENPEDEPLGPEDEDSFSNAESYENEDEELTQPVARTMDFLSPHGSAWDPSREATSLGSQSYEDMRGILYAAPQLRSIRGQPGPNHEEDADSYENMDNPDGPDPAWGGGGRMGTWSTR"}, "[2]": {"biological_target": "TCR–CD3 complex on T cells (human (endogenous in Jurkat and primary T cells)) (UniProt P07766)", "sequence (P07766 whole entry, looked up, one chain of several)": "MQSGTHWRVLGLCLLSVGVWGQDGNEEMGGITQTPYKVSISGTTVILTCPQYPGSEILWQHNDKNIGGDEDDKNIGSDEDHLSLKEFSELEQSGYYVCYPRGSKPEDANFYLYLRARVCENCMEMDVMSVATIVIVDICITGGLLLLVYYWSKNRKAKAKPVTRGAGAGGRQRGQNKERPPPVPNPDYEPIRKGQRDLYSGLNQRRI"}}, "data": [{"substance": "Blinatumomab (CD19xCD3 BiTE) (bispecific antibody)", "values": [{"measurement": "activation of Jurkat-ZsG NFAT reporter cells (ZsGreen) in droplets with CD19+ Raji cells and 100 ng/ml Blinatumomab; percent activated", "setting": "[1]", "value": 40, "unit": "%"}, {"measurement": "activation of Jurkat-ZsG NFAT reporter cells (ZsGreen) in droplets with CD19+ Raji cells and 100 ng/ml Blinatumomab; percent activated", "setting": "[2]", "value": 40, "unit": "%"}]}]}
